Reference: US11339383B2, “G proteins” (HEPTARES THERAPEUTICS LIMITED, priority 2016, dated 2022)

How the values were obtained:
[1] = molecular target: T1, NTSR1 (Rattus norvegicus, UniProt P20789); assay: Thermostability assay of ^3H-NTS-bound NTSR1; type: biochemical; conditions: DDM-solubilized
T1 construct: the wild-type rat NTSR1 (residues 43-396) and a C-terminal His10 tag; hemagglutinin signal peptide (N); Flag (N); His10 (C); made in house; host or cells: Trichoplusia ni insect cells, baculovirus (modified pFastBac1)
T1 sequence (P20789 43-396): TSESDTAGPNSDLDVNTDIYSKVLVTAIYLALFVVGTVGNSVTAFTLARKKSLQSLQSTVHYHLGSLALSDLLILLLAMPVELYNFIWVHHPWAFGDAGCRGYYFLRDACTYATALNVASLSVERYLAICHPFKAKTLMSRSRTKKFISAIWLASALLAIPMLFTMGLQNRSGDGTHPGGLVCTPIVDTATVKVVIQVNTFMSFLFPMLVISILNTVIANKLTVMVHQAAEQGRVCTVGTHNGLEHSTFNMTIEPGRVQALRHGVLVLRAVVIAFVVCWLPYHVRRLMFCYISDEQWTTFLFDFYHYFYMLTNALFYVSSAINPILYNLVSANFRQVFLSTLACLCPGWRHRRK
Procedure: The samples were placed on a rotating mixer at 4° C. for 1 hour. Cell debris and non-solubilized material were removed by ultracentrifugation (152,800×g, 4° C., 30 min), and the supernatant containing detergent-solubilized NTSR1 was used to test for thermal stability in the presence of NTS and mini-G proteins. For thermal denaturation curves, the supernatants were diluted 6.67-fold into assay buffer (50 mM TrisHCl pH 7.4, 100 mM NaCl, 1 mM MgCl2) containing 22.5 μM mini-G protein and 10 nM ^3H-NTS and incubated for 1 hour on ice. After addition of apyrase (0.25 units/ml, NEB), the sample was placed on ice for an additional 30 min. Samples (120 μl aliquots) were exposed to different temperatures between 0° C. and 60° C. for 30 min and placed on ice. […] Control reactions on ice were recorded at the start and at the end of each denaturation experiment. The percentage of activity remaining after heat exposure was determined with respect to the unheated control. Data were analyzed by nonlinear regression using a Boltzmann sigmoidal equation in the Prism software (GraphPad).

[2] = molecular target: A2AR (Homo sapiens, UniProt P29274, N154A); assay: Thermostability assay of ^3H-NECA-bound A2AR
A2AR, sequence (P29274 1-317 N154A): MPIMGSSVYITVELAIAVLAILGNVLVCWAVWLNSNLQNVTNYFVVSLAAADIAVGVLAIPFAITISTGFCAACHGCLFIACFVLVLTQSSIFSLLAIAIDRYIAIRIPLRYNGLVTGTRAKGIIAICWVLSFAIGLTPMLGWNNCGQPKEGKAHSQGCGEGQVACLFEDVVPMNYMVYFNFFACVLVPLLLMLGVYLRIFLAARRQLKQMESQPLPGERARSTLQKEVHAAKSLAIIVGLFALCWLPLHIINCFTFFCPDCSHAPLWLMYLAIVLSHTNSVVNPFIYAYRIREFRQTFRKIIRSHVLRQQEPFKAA
Procedure: The samples were incubated at room temperature for 1 h, then chilled on ice for 30 min. DDM, DM or OG were added to a final concentration of 0.1%, 0.13% or 0.8%, respectively, and samples were incubated on ice for 1 h. Cell debris was removed by centrifugation for 5 min at 20,000×g and the supernatant was aliquoted into PCR strips. Samples were heated to the desired temperature for exactly 30 min, then quenched on ice for 30 min. Samples (50 μl) were loaded onto gel filtration resin packed into a 96-well filter plate (Millipore), which was centrifuged to separate receptor-bound from free radioligand. […] Data were analyzed by nonlinear regression using GraphPad Prism software. Apparent Tm values were derived from sigmoidal dose-response analysis. Results represent the mean±SEM of two independent experiments, performed in duplicate.
Samples were heated to the desired temperature for exactly 30 min, then quenched on ice for 30 min. Samples (50 μl) were loaded onto gel-filtration resin (Toyopearl HW-40F) packed into a 96-well filter plate (Millipore), which was centrifuged to separate receptor-bound from free radioligand [28]. […] Data were analysed by nonlinear regression using GraphPad Prism software. Apparent Tm values were derived from sigmoidal dose-response analysis performed by non-liner regression. Results represent the mean±SEM of two independent experiments, performed in duplicate.

B1: Mini-Gs/q58: mini-Gs with final 19 residues of α5 helix changed to those in Gαq (13 mutations) (protein)
chain: MGHHHHHHENLYFQGIEKQLQKDKQVYRATHRLLLLGADNSGKSTIVKQMRILHGGSGGSGGTSGIFETKFQVDKVNFHMFDVGGQRDERRKWIQCFNDVTAIIFVVDSSDYNRLQEALNDFKSIWNNRWLRTISVILFLNKQDLLAEKVLAGKSKIEDYFPEFARYTTPEDATPEPGEDPRVTRAKYFIRDEFLRISTASGDGRHYCYPHFTCAVDTENARRIFAAVKDTILQLNLKEYNLV
modifications: Mini-Gs/q58
[1]
  shift in the thermostability of NTSR1: no significant shift
[2]
  coupling of mini-Gs/q chimera to A2AR (thermostability assay and SEC): did not couple
